Experimental data: paper PMC7367873, “Dissecting the sequence determinants for dephosphorylation by the catalytic subunits of phosphatases PP1 and PP2A” (Nature Communications, 2020)

Assays:
PP2Ac = biological target: T1, PP2Ac (Homo sapiens, UniProt P67775); assay: Phosphopeptide library dephosphorylation followed by mass spectrometry (PLDMS), PP2Ac; format: biochemical; settings: all libraries, 25 nM PP2Ac, 100 µM library, 4 min, 25 °C, pH 7.5; library distribution 60% Ser to 40% Thr
T1 construct: purchased Cayman Chemical 10011237
T1 sequence (P67775 1-308 limits assumed): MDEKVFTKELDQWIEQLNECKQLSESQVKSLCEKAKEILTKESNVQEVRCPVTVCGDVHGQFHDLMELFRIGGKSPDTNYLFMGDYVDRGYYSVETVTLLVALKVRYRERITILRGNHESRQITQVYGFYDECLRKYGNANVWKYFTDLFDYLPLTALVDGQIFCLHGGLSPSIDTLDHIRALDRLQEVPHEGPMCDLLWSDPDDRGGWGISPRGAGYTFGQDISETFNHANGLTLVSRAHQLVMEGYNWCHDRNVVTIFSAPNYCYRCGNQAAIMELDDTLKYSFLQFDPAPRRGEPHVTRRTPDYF
Excerpt: (§1) In order to determine phosphatase specificity on the phosphopeptide level, we developed an in vitro phosphopeptide library dephosphorylation followed by mass spectrometry approach (PLDMS, Fig. 1a; see the methods for details). In this approach, phosphopeptide libraries would be treated with PP1, PP2A, or left untreated, purified, and analyzed by LC-MS/MS measurements. In the first step, design, synthesis, and validation of phosphopeptide libraries were required. The phosphopeptide libraries were designed to yield an even distribution of amino acids in the different randomized positions and to give high coupling efficiency during synthesis, thus reducing the number of by-products. […]
(§2) The individual libraries were incubated with recombinant PP1c or PP2Ac (Supplementary Fig. 1a) and the reaction was stopped by shifting the pH from 7.5 to 3 when 30–50% of the library was dephosphorylated, depending on phosphatase activity (see the methods for details, Supplementary Fig. 1b). Peptides were then separated from the recombinant protein by size-exclusion chromatography (SEC) (Supplementary Fig. 1c) and analyzed by LC-MS/MS (Fig. 1a). […]
(§3) For LC-MS analysis, the treated/ctrl peptide libraries were purified by SEC. […] A 0.1 M ammonium acetate buffer (pH 5) was used throughout the column equilibration and purification and the elution profile was recorded at 280 nm. […]

PP1c = biological target: T2, PP1c (Homo sapiens, UniProt P62136); assay: Phosphopeptide library dephosphorylation followed by mass spectrometry (PLDMS), PP1c; format: biochemical; settings: all libraries, 25 nM PP1c, 100 µM library, 2 min, 25 °C, pH 7.5; library distribution 60% Ser to 40% Thr
T2 construct: His tag with TEV site (N, cleaved yes); intein (pTXB1) (C, cleaved yes); made in house; host or cells: E. coli BL21Star(DE3)pRARE
T2 sequence (P62136 whole entry): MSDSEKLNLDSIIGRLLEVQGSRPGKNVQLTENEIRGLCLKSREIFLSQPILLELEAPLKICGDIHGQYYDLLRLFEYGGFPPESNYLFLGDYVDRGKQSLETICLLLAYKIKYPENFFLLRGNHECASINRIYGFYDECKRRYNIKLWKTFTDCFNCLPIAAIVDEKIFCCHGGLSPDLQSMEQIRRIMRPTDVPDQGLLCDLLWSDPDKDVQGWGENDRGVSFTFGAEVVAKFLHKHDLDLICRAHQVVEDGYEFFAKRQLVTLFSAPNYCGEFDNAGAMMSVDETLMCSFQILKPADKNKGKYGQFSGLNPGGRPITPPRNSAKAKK
Excerpt: as §1, §2, §3

Row | Substance | pThr share of all sites dephosphorylated by PP2Ac (PP2Ac) [%] | pThr share of all sites dephosphorylated by PP1c (PP1c) [%]
1 | PP2Ac: His-tagged recombinant PPP2CA ΔL309, purchased from Cayman Chemical | 83 | 
2 | PP1c: recombinant catalytic subunit of PP1 |  | 73
